Measurements reported in US20260049134A1 (UNIVERSITY OF FLORIDA RESEARCH FOUNDATION, published 2026).

T1: DCC
T1 construct: coated protein in the ELISA; also called DCC-His (R&D Systems)
T1 chain: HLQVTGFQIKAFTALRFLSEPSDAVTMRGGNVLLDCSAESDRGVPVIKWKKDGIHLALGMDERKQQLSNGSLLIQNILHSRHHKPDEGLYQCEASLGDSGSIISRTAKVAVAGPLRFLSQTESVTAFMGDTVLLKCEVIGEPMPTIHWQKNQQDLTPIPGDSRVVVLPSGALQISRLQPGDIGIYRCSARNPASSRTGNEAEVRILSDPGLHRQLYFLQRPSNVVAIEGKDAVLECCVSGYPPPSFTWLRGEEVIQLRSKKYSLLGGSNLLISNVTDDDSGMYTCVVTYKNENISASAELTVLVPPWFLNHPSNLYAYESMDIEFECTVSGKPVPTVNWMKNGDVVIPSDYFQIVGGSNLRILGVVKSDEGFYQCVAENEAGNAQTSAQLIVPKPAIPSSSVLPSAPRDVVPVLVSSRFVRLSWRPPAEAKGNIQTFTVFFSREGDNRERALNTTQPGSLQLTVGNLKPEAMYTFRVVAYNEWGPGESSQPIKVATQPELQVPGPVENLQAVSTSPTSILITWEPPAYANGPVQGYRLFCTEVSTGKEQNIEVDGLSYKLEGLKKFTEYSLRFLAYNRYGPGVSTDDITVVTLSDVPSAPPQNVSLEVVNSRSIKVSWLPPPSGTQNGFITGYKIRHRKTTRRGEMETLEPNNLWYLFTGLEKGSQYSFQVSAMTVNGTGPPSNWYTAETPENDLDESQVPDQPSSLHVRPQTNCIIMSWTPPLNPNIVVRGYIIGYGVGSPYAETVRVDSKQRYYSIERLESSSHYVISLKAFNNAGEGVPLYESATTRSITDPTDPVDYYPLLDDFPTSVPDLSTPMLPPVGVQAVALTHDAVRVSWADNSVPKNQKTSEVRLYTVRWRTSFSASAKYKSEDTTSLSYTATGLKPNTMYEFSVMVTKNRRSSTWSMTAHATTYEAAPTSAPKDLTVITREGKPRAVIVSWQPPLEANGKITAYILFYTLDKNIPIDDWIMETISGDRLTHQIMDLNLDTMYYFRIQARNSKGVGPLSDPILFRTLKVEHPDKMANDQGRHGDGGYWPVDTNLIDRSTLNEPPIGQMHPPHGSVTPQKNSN

T2: HHLA2 (B7-H7)
T2 construct: coated protein in the ELISA; also called HHLA2-Fc (R&D Systems)
T2 chain: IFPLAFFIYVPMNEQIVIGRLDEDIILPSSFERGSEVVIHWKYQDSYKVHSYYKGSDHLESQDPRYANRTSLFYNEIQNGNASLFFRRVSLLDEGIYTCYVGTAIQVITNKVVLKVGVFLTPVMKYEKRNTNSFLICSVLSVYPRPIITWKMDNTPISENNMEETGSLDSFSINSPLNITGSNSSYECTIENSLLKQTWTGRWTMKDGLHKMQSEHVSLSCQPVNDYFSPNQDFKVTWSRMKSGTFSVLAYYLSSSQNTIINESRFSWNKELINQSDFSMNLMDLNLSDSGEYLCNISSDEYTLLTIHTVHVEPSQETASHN

T3: IGSF11 (VSIG3)
T3 construct: coated protein in the ELISA; also called IGSF11-Fc (R&D Systems)
T3 chain: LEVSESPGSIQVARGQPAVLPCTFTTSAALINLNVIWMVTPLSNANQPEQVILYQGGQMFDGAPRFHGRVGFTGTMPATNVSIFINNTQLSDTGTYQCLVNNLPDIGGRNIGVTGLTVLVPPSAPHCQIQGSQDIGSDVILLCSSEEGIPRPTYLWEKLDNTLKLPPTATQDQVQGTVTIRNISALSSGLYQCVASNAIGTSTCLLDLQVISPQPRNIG

T4: SELL (L-Selectin)
T4 construct: coated protein in the ELISA; also called SELL-Fc-His (R&D Systems)
T4 chain: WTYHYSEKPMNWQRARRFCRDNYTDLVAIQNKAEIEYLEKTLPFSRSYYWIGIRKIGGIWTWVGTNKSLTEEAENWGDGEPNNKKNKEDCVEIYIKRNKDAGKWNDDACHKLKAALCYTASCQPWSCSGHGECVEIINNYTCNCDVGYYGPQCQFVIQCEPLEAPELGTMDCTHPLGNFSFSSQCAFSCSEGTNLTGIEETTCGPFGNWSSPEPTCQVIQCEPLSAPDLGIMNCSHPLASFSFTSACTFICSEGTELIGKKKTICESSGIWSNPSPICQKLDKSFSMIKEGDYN


Experiments:
[1] = target: T1, DCC; assay: ELISA on coated DCC-His
Experimental: (§1) Recombinant purified ECDs (50-150 ng) of each putative target protein were coated, incubated with 150 ng of the indicated primary antibody, and binding was detected using a peroxidase-conjugated anti-human Fab secondary antibody. Heatmap represents averages of technical triplicates. (8B) Target validation via siRNA knockdown. H929 cells were transfected with siRNA pools targeting the putative antibody targets ICAM1, CADM1, and PTPRG. Cells were then subjected to cognate IgG binding analysis via flow cytometry. (NT, non-targeting siRNA).
(§2) ELISA ELISA was conducted as described previously. Briefly, 50-150 ng of antigen was coated overnight in half-area 96-well plates at 4° C., blocked with 3% BSA at 37° C. for 1 h, and 150 ng of chimeric rabbit/human IgG1 was added, incubating for 2 h at 37° C. […] After incubating at 37° C. for 15 min-1 h (depending on intensity of controls), data were acquired using a SpectraMax M5 plate reader (Molecular Devices).

[2] = target: T2, HHLA2 (B7-H7); assay: ELISA on coated HHLA2-Fc
Experimental: as §1, §2

[3] = target: T3, IGSF11 (VSIG3); assay: ELISA on coated IGSF11-Fc
Experimental: as §1, §2

[4] = target: T5, PTP4A3 (PRL-3); assay: ELISA on coated His-PTP4A3
T5 construct: coated protein in the ELISA; also called His-PTP4A3 (R&D Systems)
Experimental: as §1, §2

[5] = target: T1, DCC; assay: ELISA on coated DCC-His, 150 ng IgG1; None 0.095
Experimental: as §1, §2

[6] = target: T3, IGSF11 (VSIG3); assay: ELISA on coated IGSF11-Fc, 150 ng IgG1; None 0.090
Experimental: as §1, §2

[7] = target: T5, PTP4A3 (PRL-3); assay: ELISA on coated His-PTP4A3, 150 ng IgG1; None 0.085
Experimental: as §1, §2

[8] = target: T4, SELL (L-Selectin); assay: ELISA on coated SELL-Fc-His, 150 ng IgG1; None 0.096
Experimental: as §1, §2

T5 sequence (chain, as listed by the source limits assumed): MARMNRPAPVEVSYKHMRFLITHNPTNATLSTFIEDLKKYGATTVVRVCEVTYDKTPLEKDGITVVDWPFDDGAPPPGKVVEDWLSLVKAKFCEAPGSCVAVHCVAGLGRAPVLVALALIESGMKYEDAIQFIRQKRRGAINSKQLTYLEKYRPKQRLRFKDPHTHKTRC

ELISA Absorbance (405 nm-570 nm) [5]	ELISA Absorbance (405 nm-570 nm) [6]	ELISA Absorbance (405 nm-570 nm) [7]	ELISA Absorbance (405 nm-570 nm) [8]	Binder	binding result [1]	binding result [2]	binding result [3]	binding result [4]
0.077	0.094	0.072	0.072	HW-17 chimeric rabbit-human IgG1 LA/LA/PG (antibody, V domains shown, Fc-silenced (L234A/L235A/P329G) IgG1, lambda; Alexa Fluor 647-labeled in single-step flow cytometry; Cluster C-1) VH: QSLGESRGRLVTPDETLTLTCTVSGIDLSSNAMSWVRQAPGEGLEWIGTINTGGRAYYASWAKGRFTISRTSTTVDLKMTSLTTEDTATYFCARERYSDGRAYDIWGPGTLVTISS VL: SFVLTQPASVQVNLGQTVSLTCTADTLSRRYASWYQQKPGQAPVLLIYTDSNRPSGIPDRFSGSSSGNTATLTISGAQAGDEADYYCATDDGSGSIYQYVFGGGTQLTVTG	no binding (tested: 150 ng IgG1 per well)	no binding (tested: 150 ng IgG1 per well)	no binding (tested: 150 ng IgG1 per well)	no binding (tested: 150 ng IgG1 per well)
0.072	0.075	0.078	0.088	HW-113 chimeric rabbit-human IgG1 LA/LA/PG (antibody, V domains shown, Fc-silenced (L234A/L235A/P329G) IgG1, lambda; Alexa Fluor 647-labeled in single-step flow cytometry) VH: QKQLVESGGGLVQPGGSLTLTCTVSGFSLNKYYMGWFRQAPGKGLEWIGVISRSGDTYYSSWAKGRFTISKASTTVDLRITSPTTEDTATYFCARDASSPGFHGDRLDLWGQGTLVTVSS VL: SFVLTQPASVQVNLGQTVSLTCTADTLSRSYASWYQQKPGQAPVLLIYRDTSRPSGVPDRFSGSSSGNTATLTISGAQAGDEADYYCATSDGIGSNYLWVFGGGTQLTVTG	no binding (tested: 150 ng IgG1 per well)	no binding (tested: 150 ng IgG1 per well)	no binding (tested: 150 ng IgG1 per well)	no binding (tested: 150 ng IgG1 per well)
0.065	0.078	0.065	0.075	HW-97 chimeric rabbit-human IgG1 LA/LA/PG (antibody, V domains shown, Fc-silenced (L234A/L235A/P329G) IgG1, lambda; Alexa Fluor 647-labeled in single-step flow cytometry; Prototype of cluster C-97) VH: QKQLVESGGRLVTPGTPLTLTCTVTGIDLSSHGMSWVRQAPGKGLEWIGVIYPSGSTWYASWARGRFTISKTSTTVDLKMTSLTTEDTATHFCARGDVGGADNNIWGPGTLVTVSS VL: SFVLTQPASVQVDLGQTVSLTCTAETLSRSYASWYQQKPGQAPVLLIYRDTSRPSGVPDRFSGSSSGNTATLTISGAQAGDEADYYCATSDGSGSSYQYVFGGGTQLTVTG	no binding (tested: 150 ng IgG1 per well)	no binding (tested: 150 ng IgG1 per well)	no binding (tested: 150 ng IgG1 per well)	no binding (tested: 150 ng IgG1 per well)
0.074	0.069	0.075	0.074	HW-8 chimeric rabbit-human IgG1 LA/LA/PG (antibody, V domains shown, Fc-silenced (L234A/L235A/P329G) IgG1, kappa; Alexa Fluor 647-labeled in single-step flow cytometry; Cluster C-45) VH: QSLEESGGRLVTPGTPLTLTCTVSGFSLSSYAMSWVRQAPGKGLEWIGAISTGGSTTYASWAKGRFTISKTSSTTVDLKMTSLTTEDTATYFCVRHFRLWGPGTLVTISS VL: QVLTQTPSSVSAAVGGTVTIKCQASQSIGSALAWFQQKPGQRPKLLIYRASNLASGVPSRFKGSGSGTEFALTISGVQREDAATYYCLGGAAAVWAFGAGTNVEIKR	no binding (tested: 150 ng IgG1 per well)	no binding (tested: 150 ng IgG1 per well)	no binding (tested: 150 ng IgG1 per well)	no binding (tested: 150 ng IgG1 per well)

Continued, binder first:

Binder	ELISA Absorbance (405 nm-570 nm) [5]	ELISA Absorbance (405 nm-570 nm) [6]	ELISA Absorbance (405 nm-570 nm) [7]	ELISA Absorbance (405 nm-570 nm) [8]	binding result [1]	binding result [2]	binding result [3]	binding result [4]
HW-101 chimeric rabbit-human IgG1 LA/LA/PG (antibody, V domains shown, Fc-silenced (L234A/L235A/P329G) IgG1, lambda; Alexa Fluor 647-labeled in single-step flow cytometry; Cluster C-97) VH: QEQLVESGGRLVTPGTPLTLTCKASGFSLGKYDMSWVRQAPGKGLEWIGTIYAGSGSTWYASWAKGRFTISKTSTTVDLKMTSLTTEDTATYFCARDFLGVNSIWGPGTLVTISS VL: SFVLTQPASVQVNLGQTVSLTCTADTLSRSYASWYQQKPDQAPVLLIHRDTSRPSGVPDRFSGSNSGNTATLTISGAQAGDEADYYCATSDGSGSNFHFVFGGGTQLTVTG	0.057	0.066	0.065	0.072	no binding (tested: 150 ng IgG1 per well)	no binding (tested: 150 ng IgG1 per well)	no binding (tested: 150 ng IgG1 per well)	no binding (tested: 150 ng IgG1 per well)
HW-81 chimeric rabbit-human IgG1 LA/LA/PG (antibody, V domains shown, Fc-silenced (L234A/L235A/P329G) IgG1, lambda; Alexa Fluor 647-labeled in single-step flow cytometry; Cluster C-45) VH: QKQLVESGGGLVTPGGTLTLTCTVSGFSLSSNGVSWVRQAPGKGLEYIGLIRSIGSTYYATWAKGRFTISKTSTTVDLKITSPTTEDTATYFCARGGYRNGFKLWGPGTLVTVSS VL: QPVLTQSPSVSAALGASAKLTCTLSSAHKTYYIEWYQQQHPGKAPRYLMQLQSDGSYTKGTGVPDRFSGSSSGADRYLIISSVQAEDEADYICGVIDSAVYVFGGGTQLTVTG	0.068	0.065	0.08	0.083	no binding (tested: 150 ng IgG1 per well)	no binding (tested: 150 ng IgG1 per well)	no binding (tested: 150 ng IgG1 per well)	no binding (tested: 150 ng IgG1 per well)
HW-56 chimeric rabbit-human IgG1 LA/LA/PG (antibody, V domains shown, Fc-silenced (L234A/L235A/P329G) IgG1, kappa; Alexa Fluor 647-labeled in single-step flow cytometry; Cluster C-45) VH: QSVKESEGGLFKPTDTLTLTCTASGFTVSTNAVTWVRQAPGNGLEYIGTIGRSGSAYFASWAKRRSTLTRDINLNTVTLKMTSLTAADTATYFCVRGSPGYRTAISIWGPGTLVTISS VL: AVMTQTPSSTSAAVEGTVTINCQASQSISNRLSWFQQKPGQPPKLLIYQASTLASGVPSRFKGSGSGTEFTLTISGVQREDAATYYCLGSYSSSDASFGGGTKLEIKR	0.088	0.076	0.104	0.117	no binding (tested: 150 ng IgG1 per well)	no binding (tested: 150 ng IgG1 per well)	no binding (tested: 150 ng IgG1 per well)	no binding (tested: 150 ng IgG1 per well)
